Assay results reported in patent US20060292657A1, “Phex substrates and methods using same” (priority 2003, published 2006).

Legend:
[1] = substrate: C[C@H](NC(=O)[C@H](CO)NC(=O)c1ccccc1N)C(=O)N[C@@H](CCC(=O)O)C(=O)N[C@@H](CC(=O)O)C(=O)N[C@@H](CC(N)=O)C(=O)N[C@@H](CO)C(=O)N1CCC[C@H]1C(=O)N[C@@H](CCC(N)=O)C(=O)NCCNc1ccc([N+](=O)[O-])cc1[N+](=O)[O-]; experiment: Kinetic parameters for hydrolysis of internally quenched fluorogenic peptides by secPHEX; type: biochemical, human; settings: other: 37° C., 10 mM Bis-Tris buffer pH 5.5, 150 mM NaCl
Procedure, shortened: (§1)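 Purified human recombinant secPHEX hydrolysing internally quenched fluorogenic peptides at 37° C in 10 mM Bis-Tris pH 5.5, 150 mM NaCl; fluorescence (ex 320, em 420 nm) followed continuously, <5% substrate hydrolysed, inner-filter corrected. Km and kcat by non-linear regression; kcat/Km under [S]<<Km where applicable.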

[2] = substrate: NC(=O)CC[C@H](NC(=O)[C@H](Cc1ccc(O)cc1)NC(=O)[C@H](CC(=O)O)NC(=O)[C@H](CO)NC(=O)[C@H](Cc1ccccc1)NC(=O)CNC(=O)c1ccccc1N)C(=O)NCCNc1ccc([N+](=O)[O-])cc1[N+](=O)[O-]; experiment: as above; type: biochemical, human; settings: other: 37° C., 10 mM Bis-Tris buffer pH 5.5, 150 mM NaCl
Procedure, shortened: as §1

B1: human recombinant secPHEX (Homo sapiens) (protein)
chain: SLQAKQEYCLKPECIEAAAAILSKVNLSVDPCDNFFRFACDGWISNNPIPEDMPSYGVYPWLRHNVDLKLKELLEKSISRRRDTEAIQKAKILYSSCMNEKAIEKADAKPLLHILRHSPFRWPVLESNIGPEGVWSERKFSLLQTLATFRGQYSNSVFIRLYVSPDDKASNEHILKLDQATLSLAVREDYLDNSTEAKSYRDALYKFMVDTAVLLGANSSRAEHDMKSVLRLEIKIAEIMIPHENRTSEAMYNKMNISELSAMIPQFDWLGYIKKVIDTRLYPHLKDISPSENVVVRVPQYFKDLFRILGSERKKTIANYLVWRMVYSRIPNLSRRFQYRWLEFSRVIQGTTTLLPQWDKCVNFIESALPYVVGKMFVDVYFQEDKKEMMEELVEGVRWAFIDMLEKENEWMDAGTKRKAKEKARAVLAKVGYPEFIMNDTHVNEDLKAIKFSEADYFGNVLQTRKYLAQSDFFWLRKAVPKTEWFTNPTTVNAFYSASTNQIRFPAGELQKPFFWGTEYPRSLSYGAIGVIVGHEFTHGFDNNGRKYDKNGNLDPWWSTESEEKFKEKTKCMINQYSNYYWKKAGLNVKGKRTLGENIADNGGLREAFRAYRKWINDRRQGLEEPLLPGITFTNNQLFFLSYAHVRCNSYRPEAAREQVQIGAHSPPQFRVNGAISNFEEFQKAFNCPPNSTMNRGMDSCRLW
notes: pure soluble form of PHEX (secPHEX); made in house
[1]
  Km: 22.0 µM
  kcat: 0.3 s⁻¹
  kcat/Km: 13.6 mM⁻¹ s⁻¹
[2]
  Km: 13.3 µM
  kcat: 0.6 s⁻¹
  kcat/Km: 45.1 mM⁻¹ s⁻¹
